From PMC7437470

Assays:
[1] = target: Porcine Kallikrein (porcine); test: enzyme inhibition kinetics (Morrison equation); serial dilution of the serpin, pre-incubated with the protease before the fluorogenic substrate; kallikrein 15 nM with Gly-Pro-Arg-NHMec 9.1 uM, chymotrypsin 2 ug/mL with Ala-Ala-Pro-Phe-NHMec 42.9 uM; 37°C; sodium acetate buffer pH 7.0; Ki from apparent Ki; triplicate
[2] = target: Porcine Kallikrein (porcine)
[3] = target: Bovine α-Chymotrypsin (bovine); test: enzyme inhibition kinetics (Morrison equation); serial dilution of the serpin, pre-incubated with the protease before the fluorogenic substrate; kallikrein 15 nM with Gly-Pro-Arg-NHMec 9.1 uM, chymotrypsin 2 ug/mL with Ala-Ala-Pro-Phe-NHMec 42.9 uM; 37°C; sodium acetate buffer pH 7.0; Ki from apparent Ki; triplicate
[4] = target: Human Chymase (human) (UniProt P23946)
[5] = target: Human Neutrophil elastase (human) (UniProt P08246)
[6] = target: Human Cathepsin G (human) (UniProt P08311)
UniProt P08311, sequence (P08311 21-244): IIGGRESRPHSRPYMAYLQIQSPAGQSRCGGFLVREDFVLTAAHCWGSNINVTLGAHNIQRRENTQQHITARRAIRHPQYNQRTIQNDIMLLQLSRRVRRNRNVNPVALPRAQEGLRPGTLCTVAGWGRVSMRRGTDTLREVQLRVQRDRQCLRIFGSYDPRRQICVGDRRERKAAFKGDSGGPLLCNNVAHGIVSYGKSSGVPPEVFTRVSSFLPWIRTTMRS

Porcine Kallikrein (porcine), sequence (P00752 other isoform, or with tags, fused parts or gaps): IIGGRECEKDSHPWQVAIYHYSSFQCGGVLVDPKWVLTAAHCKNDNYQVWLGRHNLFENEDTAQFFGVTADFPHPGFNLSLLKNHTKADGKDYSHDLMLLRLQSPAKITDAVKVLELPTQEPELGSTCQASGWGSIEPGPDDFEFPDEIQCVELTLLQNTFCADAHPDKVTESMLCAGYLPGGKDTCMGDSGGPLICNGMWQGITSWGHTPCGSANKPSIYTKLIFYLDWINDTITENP
UniProt P08246, sequence (P08246 30-267): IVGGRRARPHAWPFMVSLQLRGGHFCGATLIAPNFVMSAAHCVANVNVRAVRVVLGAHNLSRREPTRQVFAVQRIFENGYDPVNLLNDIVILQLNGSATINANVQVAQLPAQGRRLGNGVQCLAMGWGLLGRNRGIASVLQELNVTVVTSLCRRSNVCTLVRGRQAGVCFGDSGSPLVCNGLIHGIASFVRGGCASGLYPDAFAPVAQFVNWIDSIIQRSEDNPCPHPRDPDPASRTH
UniProt P23946, sequence (P23946 22-247): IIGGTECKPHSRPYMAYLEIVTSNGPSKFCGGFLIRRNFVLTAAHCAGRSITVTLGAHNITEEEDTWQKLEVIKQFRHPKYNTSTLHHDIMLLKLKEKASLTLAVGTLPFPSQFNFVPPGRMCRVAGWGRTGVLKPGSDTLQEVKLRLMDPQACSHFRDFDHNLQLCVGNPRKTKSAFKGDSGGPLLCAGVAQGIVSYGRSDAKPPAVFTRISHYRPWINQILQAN

Substance | Ki [1] | inhibition of kallikrein (150 nM) activity on a fluorogenic substrate, rFhSrp1 at 10 and 500 nM (48% at 10 nM) [2] | Ki [3] | inhibition of chymase (0.6 uM) activity on a fluorogenic substrate, rFhSrp2 at 10 and 500 nM (only slightly changed at 10 nM) [4] | inhibition of neutrophil elastase (50 nM) activity on a fluorogenic substrate, rFhSrp2 at 10 and 500 nM (only slightly changed at 10 nM) [5] | inhibition of cathepsin G (100 nM) activity on a fluorogenic substrate, rFhSrp2 at 10 and 500 nM (only slightly changed at 10 nM) [6]
recombinant Fasciola hepatica serpin 1 (natural protein) | 40 nM | 96% | – | – | – | –
recombinant Fasciola hepatica serpin 2 (natural protein) | – | – | 0.07 nM | 100% | 99.9% | 97.5%
